Paper PMC8349458

Target: ACE2-Fc-TD
Experiment: SPR

Substance | Half-life (ln2/kd) (s (from ln2/kd)) | Kd [nM]
SARS-CoV-2 S1 domain, B.1.1.7 (alpha variant) (from UniProt P0DTC2 14-681) (domain or fragment) | 1190 | 1.73
SARS-CoV-2 S1 domain, B.1.351 (beta variant) (from UniProt P0DTC2 14-681) (domain or fragment) | 454 | 
SARS-CoV-2 S1 domain, D614G (from UniProt P0DTC2 14-681) (domain or fragment) |  | 6.91
